Assays:
Format in all cases: biochemical
[1] = HTP-analysis of yeast culture supernatants, no challenge (MUGal hydrolysis); conditions: activity of the variant/activity of Rd4BB (SEQ ID NO: 15)
Outline: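 Activity read as 4-methylumbelliferyl α-D-galactopyranoside hydrolysis: fluorescence (355/448 nm) after sodium carbonate stop, following 30-180 min at 37° C with 2 mM MUGal stock at pH 4.6–4.8. Enzyme source is unchallenged culture supernatant of INVSc1 yeast expressing GLA variants, grown 66-84 h at 30° C.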

[2] = HTP-analysis of supernatants pretreated with acid (MUGal hydrolysis); conditions: activity of the variant/activity of Rd4BB (SEQ ID NO: 15); challenge at pH 3.7
Outline: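 MUGal hydrolysis was tracked by fluorescence (Ex 355 nm, Em 448 nm) after a 30-180 min reaction at 37° C. in pH 4.8 McIlvaine/citrate buffer, stopped with 1 M sodium carbonate. Beforehand, yeast (INVSc1) culture supernatants carrying GLA variants were held 1-3 h at 37° C. in acidic McIlvaine buffer, pH 3.3-4.3.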

[3] = HTP-analysis of supernatants pretreated with base (MUGal hydrolysis); conditions: activity of the variant/activity of Rd4BB (SEQ ID NO: 15); challenge at pH 9.65
Outline: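 GLA variants secreted from yeast INVSc1; culture supernatants pre-incubated with McIlvaine buffer pH 7.0–8.2 or 200 mM bicarbonate pH 9.1–9.7 at 37° C. for 1–18 h. Residual activity: MUGal (4 mM stock) hydrolysis at pH 4.3–4.8, 37° C., 30–180 min, carbonate quench; fluorescence Ex 355/Em 448 nm.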

B1: 371 (protein)
chain: LDNGLARTPTMGWLHWERFMCNLDCQEEPDSCISEKLFMEMAEWMVSEGWKDAGYEYLCIDDCWMAPQRDSEGRLQADPQRFPHGIRQLANYVHSKGLKLGIYADVGNKTCAGFPGSFGYYDIDAQTFADWGVDLLKFDGCYCDSLENLADGYKHMSLALNRTGRSIVYSCEWPLYMWPFQKPNYTEIRQYCNHWRNFADIDDSWKSIKSILDWTSRNQERIVDVAGPGGWNDPDMLVIGNFGLSWDQQVTQMALWAIMAAPLFMSNDLRHISPQAKALLQDKDVIAINQDPLGKQGYQLRKGDNFEVWERPLSGDAWAVAIINRQEIGGPRSYTIPVASLGKGVACNPACFITQLLPVKRQLGFYNWTSRLKSHINPTGTVLLQLENTMQMSLKDLL
modifications: Synthetic Polypeptide sequence of Variant No. 371 of mature Human GLA
With B1 the “Relative Activity of GLA Variants After No Challenge (NC)” value [1] was “+ (0.5 to 1.5 relative activity over Rd4BB (SEQ ID NO: 15))”, the “Relative Activity of GLA Variants After Challenge at pH 3.7” value (shortened to “Relative Activity … at pH 3.7”) [2] was “− (<0.5 relative activity over Rd4BB (SEQ ID NO: 15))” and the “Relative Activity of GLA Variants After Challenge at pH 9.65” value (“Relative Activity … at pH 9.65” below) [3] was “+ (0.5 to 1.5 relative activity over Rd4BB (SEQ ID NO: 15))”.

B2: 498 (protein)
chain: LDNGLARTPTMGWLHWERFMCNLDCQEEPDSCISEKLFMEMAERMVSEGWKDAGYEYLCIDDCWMAPQRDSEGRLQADPQRFPHGIRQLANYVHSKGLKLGIYADVGNKTCAGFPGSFGYYDIDAQTFADWGVDLLKFDGCYCDSLENLADGYKHMSLALNRTGRSIVYSCEWPLYMWPFQKPNYTEIRQYCNHWRNFADIDDSWKSIKSILDWTSFNQERIVDVAGPGGWNDPDMLVIGNFGLSWNQQVTQMALWAIMAAPLFMSNDLRHISPQAKALLQDKDVIAINQDPLGKQGYQLRQGDNFEVWERPLSGLAWAVAMINRQEIGGPRSYTIAVASLGKGVACNPACFITQLLPVKRKLGFYEWTSRLRSHINPTGTVLLQLENTMQISLKDLL
modifications: Synthetic Polypeptide sequence of Variant No. 498 of mature Human GLA
For B2, the “Relative Activity of GLA Variants After No Challenge (NC)” value [1] was “+ (0.5 to 1.5 relative activity over Rd4BB (SEQ ID NO: 15))”, the “Relative Activity … at pH 3.7” value [2] was “+ (0.5 to 1.5 relative activity over Rd4BB (SEQ ID NO: 15))” and the “Relative Activity … at pH 9.65” value [3] was “+ (0.5 to 1.5 relative activity over Rd4BB (SEQ ID NO: 15))”.

B3: 499 (protein)
chain: LDNGLARTPTMGWLHWERFMCNLDCQEEPDSCISEKLFMEMAERMVSEGWKDAGYEYLCIDDCWMAPQRDSEGRLQADPQRFPHGIRQLANYVHSKGLKLGIYADVGNKTCAGFPGSFGYYDIDAQTFADWGVDLLKFDGCYCDSLENLADGYKHMSLALNRTGRSIVYSCEWPLYMWPFQKPNYTEIRQYCNHWRNFADIDDSWKSIKSILDWTSFNQERIVDVAGPGGWNDPDMLVIGNFGLSWNQQVTQMALWAIMAAPLFMSNDLRHISPQAKALLQDKDVIAINQDPLGKQGYQLRQGDNFEVWERPLSGLAWAVAMINRQEIGGPRSYTIAVASLGKGVACNPACFITQLLPVKRKLGFYEWTSRLRSHINPTGTVLLQLENLMQMSLKDLL
modifications: Synthetic Polypeptide sequence of Variant No. 499 of mature Human GLA
For B3, the “Relative Activity of GLA Variants After No Challenge (NC)” value [1] was “+ (0.5 to 1.5 relative activity over Rd4BB (SEQ ID NO: 15))”, the “Relative Activity … at pH 3.7” value [2] was “+ (0.5 to 1.5 relative activity over Rd4BB (SEQ ID NO: 15))” and the “Relative Activity … at pH 9.65” value [3] was “+ (0.5 to 1.5 relative activity over Rd4BB (SEQ ID NO: 15))”.

B4: 501 (protein)
chain: LDNGLARTPTMGWLHWERFMCNLDCQEEPDSCISEKLFMEMAERMVSEGWKDAGYEYLCIDDCWMAPQRDSEGRLQADPQRFPHGIRQLANYVHSKGLKLGIYADVGNKTCAGFPGSFGYYDIDAQTFADWGVDLLKFDGCYCDSLENLADGYKHMSLALNRTGRSIVYSCEWPLYMWPFQKPNYTEIRQYCNHWRNFADIDDSWKSIKSILDWTSFNQERIVDVAGPGGWNDPDMLVIGNFGLSWNQQVTQMALWAIMAAPLFMSNDLRHISPQAKALLQDKDVIAINQDPLGKQGYQLRQGDNFEVWERPLSGLAWAVAMINRQEIGGPRSYTIAVASLGKGVACNPACFITQLLPVKRKLGFYEWTSRLRSHINPTGTVLLQLENTMQGSLKDLL
modifications: Synthetic Polypeptide sequence of Variant No. 501 of mature Human GLA
For B4, the “Relative Activity of GLA Variants After No Challenge (NC)” value [1] was “+ (0.5 to 1.5 relative activity over Rd4BB (SEQ ID NO: 15))”, the “Relative Activity … at pH 3.7” value [2] was “++ (>1.5 to 2.5 relative activity over Rd4BB (SEQ ID NO: 15))” and the “Relative Activity … at pH 9.65” value [3] was “+ (0.5 to 1.5 relative activity over Rd4BB (SEQ ID NO: 15))”.

B5: 500 (protein)
chain: LDNGLARTPTMGWLHWERFMCNLDCQEEPDSCISEKLFMEMAERMVSEGWKDAGYEYLCIDDCWMAPQRDSEGRLQADPQRFPHGIRQLANYVHSKGLKLGIYADVGNKTCAGFPGSFGYYDIDAQTFADWGVDLLKFDGCYCDSLENLADGYKHMSLALNRTGRSIVYSCEWPLYMWPFQKPNYTEIRQYCNHWRNFADIDDSWKSIKSILDWTSFNQERIVDVAGPGGWNDPDMLVIGNFGLSWNQQVTQMALWAIMAAPLFMSNDLRHISPQAKALLQDKDVIAINQDPLGKQGYQLRQGDNFEVWERPLSGLAWAVAMINRQEIGGPRSYTIAVASLGKGVACNPACFITQLLPVKRKLGFYEWTSRLRSHINPTGTVLLQLENTAQMSLKDLL
modifications: Synthetic Polypeptide sequence of Variant No. 500 of mature Human GLA
With B5 the “Relative Activity of GLA Variants After No Challenge (NC)” value [1] was “+ (0.5 to 1.5 relative activity over Rd4BB (SEQ ID NO: 15))”, the “Relative Activity … at pH 3.7” value [2] was “+ (0.5 to 1.5 relative activity over Rd4BB (SEQ ID NO: 15))” and the “Relative Activity … at pH 9.65” value [3] was “+ (0.5 to 1.5 relative activity over Rd4BB (SEQ ID NO: 15))”.

B6: 502 (protein)
chain: LDNGLARTPTMGWLHWERFMCNLDCQEEPDSCISEKLFMEMAERMVSEGWKDAGYEYLCIDDCWMAPQRDSEGRLQADPQRFPHGIRQLANYVHSKGLKLGIYADVGNKTCAGFPGSFGYYDIDAQTFADWGVDLLKFDGCYCDSLENLADGYKHMSLALNRTGRSIVYSCEWPLYMWPFQKPNYTEIRQYCNHWRNFADIDDSWKSIKSILDWTSFNQERIVDVAGPGGWNDPDMLVIGNFGLSWNQQVTQMALWAIMAAPLFMSNDLRHISPQAKALLQDKDVIAINQDPLGKQGYQLRQGDNFEVWERPLSGLAWAVAMINRQEIGGPRSYTIAVASLGKGVACNPACFITQLLPVKRKLGFYEWTSRLRSHINPTGTVLLQSENTMQMSLKDLL
modifications: Synthetic Polypeptide sequence of Variant No. 502 of mature Human GLA
For B6, the “Relative Activity of GLA Variants After No Challenge (NC)” value [1] was “− (<0.5 relative activity over Rd4BB (SEQ ID NO: 15))”, the “Relative Activity … at pH 3.7” value [2] was “+ (0.5 to 1.5 relative activity over Rd4BB (SEQ ID NO: 15))” and the “Relative Activity … at pH 9.65” value [3] was “− (<0.5 relative activity over Rd4BB (SEQ ID NO: 15))”.

B7: 504 (protein)
chain: LDNGLARTPTMGWLHWERFMCNLDCQEEPDSCISEKLFMEMAERMVSEGWKDAGYEYLCIDDCWMAPQRDSEGRLQADPQRFPHGIRQLANYVHSKGLKLGIYADVGNKTCAGFPGSFGYYDIDAQTFADWGVDLLKFDGCYCDSLENLADGYKHMSLALNRTGRSIVYSCEWPLYMWPFQKPNYTEIRQYCNHWRNFADIDDSWKSIKSILDWTSFNQERIVDVAGPGGWNDPDMLVIGNFGLSWNQQVTQMALWAIMAAPLFMSNDLRHISPQAKALLQDKDVIAINQDPLGKQGYQLRQGDNFEVWERPLSGLAWAVAMINRQEIGGPRSYTIAVASLGKGVACNPACFITQLLPVKRKLGFYEWTSRLRSHINPTGTVLLQLENTSQMSLKDLL
modifications: Synthetic Polypeptide sequence of Variant No. 504 of mature Human GLA
In the case of B7, the “Relative Activity of GLA Variants After No Challenge (NC)” value [1] is reported as “+ (0.5 to 1.5 relative activity over Rd4BB (SEQ ID NO: 15))”, the “Relative Activity … at pH 3.7” value [2] is reported as “+ (0.5 to 1.5 relative activity over Rd4BB (SEQ ID NO: 15))” and the “Relative Activity … at pH 9.65” value [3] is reported as “+ (0.5 to 1.5 relative activity over Rd4BB (SEQ ID NO: 15))”.

B8: 503 (protein)
chain: LDNGLARTPTMGWLHWERFMCNLDCQEEPDSCISEKLFMEMAERMVSEGWKDAGYEYLCIDDCWMAPQRDSEGRLQADPQRFPHGIRQLANYVHSKGLKLGIYADVGNKTCAGFPGSFGYYDIDAQTFADWGVDLLKFDGCYCDSLENLADGYKHMSLALNRTGRSIVYSCEWPLYMWPFQKPNYTEIRQYCNHWRNFADIDDSWKSIKSILDWTSFNQERIVDVAGPGGWNDPDMLVIGNFGLSWNQQVTQMALWAIMAAPLFMSNDLRHISPQAKALLQDKDVIAINQDPLGKQGYQLRQGDNFEVWERPLSGLAWAVAMINRQEIGGPRSYTIAVASLGKGVACNPACFITQLLPVKRKLGFYEWTSRLRSHINPTGTVLLCLENTMQMSLKDLL
modifications: Synthetic Polypeptide sequence of Variant No. 503 of mature Human GLA
For B8, the “Relative Activity of GLA Variants After No Challenge (NC)” value [1] was “+ (0.5 to 1.5 relative activity over Rd4BB (SEQ ID NO: 15))”, the “Relative Activity … at pH 3.7” value [2] was “+ (0.5 to 1.5 relative activity over Rd4BB (SEQ ID NO: 15))” and the “Relative Activity … at pH 9.65” value [3] was “+ (0.5 to 1.5 relative activity over Rd4BB (SEQ ID NO: 15))”.

Reference: patent US11278600B2, “Human alpha-galactosidase variants” (Codexis, Inc., priority 2014, dated 2022)
